± gives the standard deviation of the averaged measurements.
Experiment: total protein half-life in vivo (active degradation + dilution); higher = more stable protein
[1] = E. coli NCM3722 delta-clpP delta-lon delta-hslV, growth: N-lim chemostat, doubling time 6 h
[2] = E. coli NCM3722 delta-clpP, growth: N-lim chemostat, doubling time 6 h
[3] = E. coli NCM3722 delta-hslV, growth: N-lim chemostat, doubling time 6 h
[4] = E. coli NCM3722 delta-lon, growth: N-lim chemostat, doubling time 6 h
[5] = E. coli NCM3722 delta-smpB, growth: N-lim chemostat, doubling time 6 h
[6] = wild type E. coli NCM3722, growth: C-lim chemostat, doubling time 3 h
[7] = wild type E. coli NCM3722, growth: C-lim chemostat, doubling time 6 h
[8] = wild type E. coli NCM3722, growth: C-lim chemostat, doubling time 12 h
[9] = wild type E. coli NCM3722, growth: N-lim chemostat, doubling time 6 h
[10] = wild type E. coli NCM3722, growth: N-lim chemostat, doubling time 12 h
[11] = wild type E. coli NCM3722, growth: P-lim chemostat, doubling time 6 h
[12] = wild type E. coli NCM3722, growth: P-lim chemostat, doubling time 12 h

Sequence | total protein half-life in vivo [1] [h] | total protein half-life in vivo [2] [h] | total protein half-life in vivo [3] [h] | total protein half-life in vivo [4] [h] | total protein half-life in vivo [5] [h] | total protein half-life in vivo [6] [h] | total protein half-life in vivo [7] [h] | total protein half-life in vivo [8] [h] | total protein half-life in vivo [9] [h] | total protein half-life in vivo [10] [h] | total protein half-life in vivo [11] [h] | total protein half-life in vivo [12] [h]
MFEPMELTNDAVIKVIGVGGGGGNAVEHMVRERIEGVEFFAVNTDAQALRKTAVGQTIQIGSGITKGLGAGANPEVGRNAADEDRDALRAALEGADMVFIAAGMGGGTGTGAAPVVAEVAKDLGILTVAVVTKPFNFEGKKRMAFAEQGITELSKHVDSLITIPNDKLLKVLGRGISLLDAFGAANDVLKGAVQGIAELITRPGLMNVDFADVRTVMSEMGYAMMGSGVASGEDRAEEAAEMAISSPLLEDIDLSGARGVLVNITAGFDLRLDEFETVGNTIRAFASDNATVVIGTSLDPDMNDELRVTVVATGIGMDKRPEITLVTNKQVQQPVMDRYQQHGMAPLTQEQKPVAKVVNDNAPQTAKEPDYLDIPAFLRKQAD [P0A9A6] | 5.406 ± 0.043 | 5.13 ± 0.67 | 1.86 ± 0.3 | 1.95 ± 0.19 | 1.95 ± 0.0047 | 1.25 ± 0.079 | 1.97 ± 0.13 | 2.7 ± 0.23 | 1.79 ± 0.093 | 2.79 ± 0.26 | 2.53 ± 0.23 | 4.37 ± 0.54
MNNSINHKFHHISRAEYQELLAVSRGDAVADYIIDNVSILDLINGGEISGPIVIKGRYIAGVGAEYTDAPALQRIDARGATAVPGFIDAHLHIESSMMTPVTFETATLPRGLTTVICDPHEIVNVMGEAGFAWFARCAEQARQNQYLQVSSCVPALEGCDVNGASFTLEQMLAWRDHPQVTGLAEMMDYPGVISGQNALLDKLDAFRHLTLDGHCPGLGGKELNAYITAGIENCHESYQLEEGRRKLQLGMSLMIREGSAARNLNALAPLINEFNSPQCMLCTDDRNPWEIAHEGHIDALIRRLIEQHNVPLHVAYRVASWSTARHFGLNHLGLLAPGKQADIVLLSDARKVTVQQVLVKGEPIDAQTLQAEESARLAQSAPPYGNTIARQPVSASDFALQFTPGKRYRVIDVIHNELITHSHSSVYSENGFDRDDVSFIAVLERYGQRLAPACGLLGGFGLNEGALAATVSHDSHNIVVIGRSAEEMALAVNQVIQDGGGLCVVRNGQVQSHLPLPIAGLMSTDTAQSLAEQIDALKAAARECGPLPDEPFIQMAFLSLPVIPALKLTSQGLFDGEKFAFTTLEVTE | 4.53 | 3.24 ± 0.11 | – | – | – | 2.16 ± 0.17 | 3.19 ± 0.16 | 4.26 ± 0.098 | – | – | 3.61 ± 1.4 | 4.14 ± 0.77
MKKLKINYLFIGILALLLAVALWPSIPWFGKADNRIAAIQARGELRVSTIHTPLTYNEINGKPFGLDYELAKQFADYLGVKLKVTVRQNISQLFDDLDNGNADLLAAGLVYNSERVKNYQPGPTYYSVSQQLVYKVGQYRPRTLGNLTAEQLTVAPGHVVVNDLQTLKETKFPELSWKVDDKKGSAELMEDVIEGKLDYTIADSVAISLFQRVHPELAVALDITDEQPVTWFSPLDGDNTLSAALLDFFNEMNEDGTLARIEEKYLGHGDDFDYVDTRTFLRAVDAVLPQLKPLFEKYAEEIDWRLLAAIAYQESHWDAQATSPTGVRGMMMLTKNTAQSLGITDRTDAEQSISGGVRYLQDMMSKVPESVPENERIWFALAAYNMGYAHMLDARALTAKTKGNPDSWADVKQRLPLLSQKPYYSKLTYGYARGHEAYAYVENIRKYQISLVGYLQEKEKQATEAAMQLAQDYPAVSPTELGKEKFPFLSFLSQSSSNYLTHSPSLLFSRKGSEEKQN [P0AGC5] | 4.75 | – | – | – | – | – | – | – | 1.64 | – | – | 3.13
MVERTAVFPAGRHSLYAEHRYSAAIRSGDLLFVSGQVGSREDGTPEPDFQQQVRLAFDNLHATLAAAGCTFDDIIDVTSFHTDPENQFEDIMTVKNEIFSAPPYPNWTAVGVTWLAGFDFEIKVIARIPEQ | 5.72 ± 0.59 | 4.29 ± 0.47 | 5.62 ± 1.5 | 5.45 ± 0.62 | 4.61 ± 0.57 | 3.61 | 6.32 | 11.5 ± 1.1 | 5.02 ± 0.087 | 8.83 ± 0.12 | 5.604 ± 0.05 | 12.1 ± 0.51
MSFATISVIGLGYIGLPTAAAFASRQKQVIGVDINQHAVDTINRGEIHIVEPDLASVVKTAVEGGFLRASTTPVEADAWLIAVPTPFKGDHEPDMTYVESAARSIAPVLKKGALVILESTSPVGSTEKMAEWLAEMRPDLTFPQQVGEQADVNIAYCPERVLPGQVMVELIKNDRVIGGMTPVCSARASELYKIFLEGECVVTNSRTAEMCKLTENSFRDVNIAFANELSLICADQGINVWELIRLANRHPRVNILQPGPGVGGHCIAVDPWFIVAQNPQQARLIRTAREVNDHKPFWVIDQVKAAVADCLAATDKRASELKIACFGLAFKPNIDDLRESPAMEIAELIAQWHSGETLVVEPNIHQLPKKLTGLCTLAQLDEALATADVLVMLVDHSQFKVINGDNVHQQYVVDAKGVWR | 5.3 ± 0.14 | – | 5.1 ± 0.76 | 4.6415 ± 0.0014 | 4.11 ± 0.081 | 2.91 ± 0.71 | 7.21 ± 1.1 | 9.93 ± 3 | 5 ± 0.43 | 8.104 ± 0.048 | 5.77 ± 0.07 | 12.5 ± 1.5
MNSLRPELLELTPQALTALSNAGFVKRSLKELENGNVPEISHENDALIATFSDGVRTQLANGQALKEAQCSCGANGMCRHRVMLVLSYQRLCATTQSTEKEEEWDPAIWLEELATLPDATRKRAQALVAKGITIELFCAPGEIPSARLPMSDVRFYSRSSIRFARCDCIEGTLCEHVVLAVQAFVEAKAQQAEFNHLIWQMRSEHVTSSDDPFASEEGNACRQYVQQLSQTLWLGGISQPLIHYEAAFNRALQAAETCNWRWVSESLRQLRASVDAFHARASHYNAGECLHQLAALNSRLNCAQEMARRDSIGEVPPVPWRTVVGSGIAGEAKLDHLRLVSLGMRCWQDIEHYGLRIWFTDPDTGSILHLSRSWPRSEQENSPAATRRLFSFQAGALAGGQIVSQAAKRSADGELLLATRNRLSSVVPLSPDAWQMLSAPLRQPGIVALREYLRQRPPACIRPLNQVDNLFILPVAECISLGWDSSRQTLDAQVISGEGEDNVLTLSLPASASAPYAVERMAALLQQTDDPVCLVSGFVSFVEGQLTLEPRVMMTKTRAWALDAETTPVAPLPSASVLPVPSTAHQLLIRCQALLIQLLHNGWRYQEQSAIGQA | 3.47 | – | – | – | – | – | – | – | – | – | – | –
